Assay results from paper PMC10397247.

Assays:
Assay in all cases: two-hybrid library CCmax;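 also: natural log of median RNA to DNA barcode read ratio; higher means stronger binding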
[1] = target: T1, 4H2705-AA; conditions: mean of both orientations
T1 chain: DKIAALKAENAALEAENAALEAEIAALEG

[2] = target: T2, 4H2736-AA; conditions: mean of both orientations
T2 chain: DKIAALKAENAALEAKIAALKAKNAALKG

[3] = target: T3, 4H3625-AA; conditions: mean of both orientations
T3 chain: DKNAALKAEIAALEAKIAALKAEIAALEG

[4] = target: T4, 4H3905-AA; conditions: mean of both orientations
T4 chain: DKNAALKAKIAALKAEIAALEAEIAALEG

[5] = target: T5, 4H134-AA; conditions: mean of both orientations
T5 chain: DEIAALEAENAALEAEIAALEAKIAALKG

[6] = target: T6, O14-AA; conditions: mean of both orientations
T6 chain: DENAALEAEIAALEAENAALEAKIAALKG

[7] = target: T7, 4H337-AA; conditions: mean of both orientations
T7 chain: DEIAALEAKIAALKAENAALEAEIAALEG

[8] = target: T8, 4H3590-AA; conditions: mean of both orientations
T8 chain: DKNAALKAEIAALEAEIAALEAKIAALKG

[9] = target: T9, 4H1350-AA; conditions: mean of both orientations
T9 chain: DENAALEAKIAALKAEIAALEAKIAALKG

[10] = target: T10, 4H510-AA; conditions: mean of both orientations
T10 chain: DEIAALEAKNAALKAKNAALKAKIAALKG

[11] = target: T11, 4H451-AA; conditions: mean of both orientations
T11 chain: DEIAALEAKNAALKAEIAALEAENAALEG

[12] = target: T12, 4H1070-AA
T12 chain: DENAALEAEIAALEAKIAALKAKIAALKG

[13] = target: T13, 4H1193-AA; conditions: mean of both orientations
T13 chain: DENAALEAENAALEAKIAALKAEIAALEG

[14] = target: 4H_GCN4; conditions: mean of both orientations
[15] = target: T14, O11-AA
T14 chain: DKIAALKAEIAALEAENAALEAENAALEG

[16] = target: T15, 4H2888-AA; conditions: mean of both orientations
T15 chain: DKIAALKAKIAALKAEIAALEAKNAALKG

[17] = target: T16, 4H1392-AA; conditions: mean of both orientations
T16 chain: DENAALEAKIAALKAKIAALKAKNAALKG

[18] = target: T17, 4H2622-AA; conditions: mean of both orientations
T17 chain: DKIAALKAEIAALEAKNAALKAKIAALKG

[19] = target: T18, 4H43-AA; conditions: mean of both orientations
T18 chain: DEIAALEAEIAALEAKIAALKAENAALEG

[20] = target: GCN2_T
[21] = target: T19, 4H4038-AA; conditions: mean of both orientations
T19 chain: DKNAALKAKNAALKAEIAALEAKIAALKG

[22] = target: T20, 4H_BCR; conditions: mean of both orientations
T20 chain: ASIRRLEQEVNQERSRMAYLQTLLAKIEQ

[23] = target: T21, 4H1385-AA; conditions: mean of both orientations
T21 chain: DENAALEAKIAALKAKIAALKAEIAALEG

[24] = target: T22, 4H384-AA
T22 chain: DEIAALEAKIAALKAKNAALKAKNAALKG

[25] = target: T23, 4H3587-AA; conditions: mean of both orientations
T23 chain: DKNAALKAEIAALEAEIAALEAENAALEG

[26] = target: T24, O13-AA; conditions: mean of both orientations
T24 chain: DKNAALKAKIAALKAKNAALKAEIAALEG

[27] = target: T25, 4H3049-AA; conditions: mean of both orientations
T25 chain: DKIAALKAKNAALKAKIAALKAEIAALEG

Chain of 4H_GCN4 (chain, as listed by the source): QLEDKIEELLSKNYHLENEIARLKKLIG

Binder: DENAALEAEIAALEAKIAALKAKIAALKG [4H1070-AA]
- interaction score [1]: -1.19
- interaction score [2]: -0.965
- interaction score [3]: 1.73
- interaction score [4]: 2.23
- interaction score [5]: 1.2
- interaction score [6]: 0.236
- interaction score [7]: 0.472
- interaction score [8]: 2.25
- interaction score [9]: 1.96
- interaction score [10]: -1.68
- interaction score [11]: -1.11
- interaction score [12]: 2.05
- interaction score [13]: -0.64
- interaction score [14]: -1.5
- interaction score [15]: 1.22
- interaction score [16]: 1.51
- interaction score [17]: -0.733
- interaction score [18]: 1.21
- interaction score [19]: 1.94
- interaction score [20]: -0.746
- interaction score [21]: 1.53
- interaction score [22]: -1.54
- interaction score [23]: 1.6
- interaction score [24]: -0.364
- interaction score [25]: 1.56
- interaction score [26]: -0.784
- interaction score [27]: 0.86
